Data: article PMC10572015

Experiments:
[1] = biological target: endogenous PTB-containing squid proteins
[2] = biological target: phosphotyrosine-binding domain (PTB)-containing axonal proteins

mean anterograde FAT rate, vesicle motility assay in isolated squid axoplasm; 100 nM GST–AICD co-perfused with an excess of Fe65 PTB2-6xHis as competitor (GST–AICD alone 1.20; Buffer X/2 1.64) [1] [µm/s]	mean retrograde FAT rate, vesicle motility assay in isolated squid axoplasm; 100 nM GST–AICD co-perfused with an excess of Fe65 PTB2-6xHis as competitor (GST–AICD alone 1.02; Buffer X/2 1.23) [1] [µm/s]	mean anterograde FAT rate, vesicle motility assay in isolated squid axoplasm perfused with 100 nM GST–AICD (Buffer X/2 1.64) [2] [µm/s]	mean retrograde FAT rate, vesicle motility assay in isolated squid axoplasm perfused with 100 nM GST–AICD (Buffer X/2 1.23) [2] [µm/s]	mean anterograde FAT rate, vesicle motility assay in isolated squid axoplasm perfused with 100 nM GST–AICDΔNPTY (GST–AICD 1.20; Buffer X/2 1.64) [2] [µm/s]	mean retrograde FAT rate, vesicle motility assay in isolated squid axoplasm perfused with 100 nM GST–AICDΔNPTY (GST–AICD 1.02; Buffer X/2 1.23) [2] [µm/s]	Substance
1.4	1.19	1.2	1.02			GST–AICD (APP intracellular domain fused to glutathione-S-transferase) (domain or fragment)
				1.5	1.14	GST–AICDΔNPTY (domain or fragment)
